Assay [1] addresses T1, 6506GJ130-1A: Human NKP46 Recombinant Protein (His) (human, UniProt O76036 22-258, limits assumed).
T1 construct: also called human NKp46 protein; not shown: His tag
Description: SPR, Biacore 8K, antibody captured on Protein A chip, NKp46 as analyte.

In assay [2] the target is T1, 6506GJ130-1A: Human NKP46 Recombinant …. Description: competition ELISA, NKp46-His coated; competitor 1-10 at 20 ug/ml.
Assay [3] shares this target. The assay can be described thus: competition ELISA, NKp46-His coated; competitor 2-10 at 20 ug/ml.
For assay [4] the target is unchanged. The assay can be described thus: competition ELISA, NKp46-His coated; competitor 1-8 at 20 ug/ml.
The target is the same in assay [5]. The assay can be described thus: competition ELISA, NKp46-His coated; competitor 1-2 at 20 ug/ml.
Assay [6] has the same target. The assay can be described thus: competition ELISA, NKp46-His coated; competitor 1-4-2 at 20 ug/ml.
Assay [7] shares this target. The assay can be described thus: competition ELISA, NKp46-His coated; no competitor (Control).
Assay [8] shares this target. Description: competition ELISA, NKp46-His coated; competitor 2-5 at 20 ug/ml.
Assay [9] shares this target. Description: competition ELISA, NKp46-His coated; competitor 2-1 at 20 ug/ml.
Assay [10] shares this target. Description: competition ELISA, NKp46-His coated; competitor 2-7 at 20 ug/ml.
For assay [11] the target is unchanged. Description: competition ELISA, NKp46-His coated; competitor 2-2 at 20 ug/ml.
Assay [12] shares this target. The assay can be described thus: competition ELISA, NKp46-His coated; competitor 2-3 at 20 ug/ml.

T1 sequence (O76036 22-258 limits assumed): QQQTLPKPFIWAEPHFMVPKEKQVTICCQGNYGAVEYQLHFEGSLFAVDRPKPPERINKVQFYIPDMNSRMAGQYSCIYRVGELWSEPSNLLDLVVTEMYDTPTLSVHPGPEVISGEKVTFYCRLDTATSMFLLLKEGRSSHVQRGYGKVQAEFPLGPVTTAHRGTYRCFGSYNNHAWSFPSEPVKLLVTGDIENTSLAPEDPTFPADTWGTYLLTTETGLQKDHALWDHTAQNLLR

B1: u6506gj130-1-10 (1-10) (antibody, IgG4, V domains shown)
VH: QVQLQQPGAELVKPGASVKLSCKASGYIFTSYWMHWVKQRPGQGLEWIGMIHPNSGSTNYNEKFKSKATLTVDKSSSTAYMQLSSLTSEDSAVYYCAREGNWARGYFEYWGQGTTLTVSS
VL: DIKMTQSPSSMYASLGERVTITCKASQDINSYLSWFQQKPGKSPKTLIYRANRLVDGVPSRFSGSGSGQDYSLTISSLEYEDVGMYYCLQYDEFPYTFGGGTKLEIK
notes: Beacon screening clone; made as mouse/human chimeric IgG4
For the molecule B1, the dissociation constant (Kd) in assay [1] was determined as 9.34 nM. The koff in assay [1] was 0.00229 s⁻¹. In addition, the kon in assay [1] turned out to be 246000 M⁻¹ s⁻¹. Further, the ELISA signal was found to be 0.095 in assay [2]; 0.097 in assay [3]; 1.71 in assay [4]; 1.04 in assay [5]; 0.895 in [6]; 1.6 in assay [7]. The ELISA signal came to 1.44 in assay [8]; 0.121 in [9]; 0.08 in assay [10]; 0.086 in [11]; 0.092 in assay [12].

B2: 21C9E9 (2-5) (antibody, IgG4, V domains shown)
VH: DVQLQESGPGLVKTSQSLSLTCSVTGYSITSDDYWNWIRQFPGNKLEWVGYISYDGSNNYNPSLKNRISITRDTSKNQFFLKLNSVTTEDTATYYCARLGYPAMDSWGQGTSVTVSS
VL: DIKMTQSPSSMYASLGERVTITCKASQDINSYLSWFQQKPGKSPKTLIYRANRLVDGVPSRFSGSGSGQDYSLTISSLEFEDLGIYYCLQYDEFPWTFGGGTKLEIK
notes: Hybridoma clone; made as mouse/human chimeric IgG4
Turning to B2, the dissociation constant (Kd) in assay [1] was 4.96 nM. In assay [1], the koff was determined as 0.000116 s⁻¹. In [1], the kon was determined as 23400 M⁻¹ s⁻¹. For the same molecule, the ELISA signal in assay [2] is 1.4; in assay [3] it was 1.3; in assay [4] it was 1.29; in assay [5], 1.3; in [6], 0.612; in [7] it was 1.31. Moreover, the ELISA signal in [8] was 0.201; in [9] it was 1.28; in assay [10], 1.33; in assay [11] it was 1.28; in assay [12], 1.27.

B3: u6506gj130-1-4-vk2 (1-4-2) (antibody, IgG4, V domains shown)
VH: DVQLQQSVAELVRPGASVNLSCTASGFNIKNTYMHWVKQRPEQGLEWIGMIDPANGNTKYAPKFQGKATITADTSSNTAYLHLSSLTSEDTAIYYCARWAYDGYYESYFDYWGQGTTLTVSS
VL: SIVMTQSPKFLLVSAGDRVTITCKASQSVSNDVAWYQQKPGQSPKLLIYYASNRYTGVPDRFTGSGYGTDFTFTISTVQAEDLAVYFCHQDYSSPFTFGSGTKLEIK
notes: as for B1
In the case of B3, the Kd in assay [1] came out at 18.3 nM. Also, in [1], the dissociation rate constant (koff) turned out to be 0.0038 s⁻¹. Further, in assay [1], the on-rate constant (kon) was found to be 207000 M⁻¹ s⁻¹. The ELISA signal is 0.662 in assay [2]; 0.691 in assay [3]; 1.24 in assay [4]; 0.1 in assay [5]; 0.082 in [6]; 1.44 in assay [7]. Besides, the ELISA signal came to 0.852 in [8]; 0.764 in [9]; 0.686 in assay [10]; 0.829 in assay [11]; 0.785 in assay [12].

B4: 32C9F4 (2-2) (antibody, IgG4, V domains shown)
VH: QVQLQQPGAELVKPGASVKLSCKASGYTFTSYWMHWVKQRPGQGLEWIGMIHPNSGVTKYNEKFKSKATLTVDKSSSTAYMQLSSLTSEDSAVYFCAGDGRFAYWGQGTLVTVSA
VL: DIQMTQSPSSLSASLGERVSLTCRASQDIGSSLNWLQQEPDGTIKRLIYATSSLDSGVPKRFSGSRSGSDYSLTISSLESEDFVDYYCLQYASSPWTFGGGTKLEIK
notes: as for B2
With B4, the equilibrium dissociation constant (Kd) in assay [1] turned out to be 1.03 nM. Besides, the off-rate constant (koff) in assay [1] amounted to 0.000542 s⁻¹. Besides, in assay [1], the on-rate (kon) was 527000 M⁻¹ s⁻¹. In addition, the ELISA signal in assay [2] was 0.159; in assay [3] it was 0.096; in assay [4] it was 1.37; in assay [5], 1.05; in assay [6], 0.931; in assay [7], 1.34. Moreover, the ELISA signal in [8] came out at 1.2; in assay [9], 0.241; in assay [10], 0.098; in assay [11], 0.093; in assay [12] it was 0.092.

B5: 8A10C11 (2-7) (antibody, IgG4, V domains shown)
VH: QVQLQQPGAELVKPGASVKLSCKASGFTFTNYWMHWVKQRPGQGLEWIGMIHPNSGSTNYNEKFKSKATLTVDKSSSTAYMQLSSLTSEDSAVYYCAGGGRLDYWGQGTTLTVSS
VL: DIQMTQSPSSLSASLGERVSLTCRASQDIGSSLNWLQQEPDGTIKRLIYATSSLDSGVPKRFSGSRSGSDYSLTISSLESEDFVDYYCLQYASSPFTFGSGTKLEIK
notes: as for B2
As for B5, in assay [1], the equilibrium dissociation constant (Kd) was 2.78 nM. In addition, the off-rate (koff) in [1] was determined as 0.00142 s⁻¹. The kon in [1] was determined as 511000 M⁻¹ s⁻¹. The ELISA signal in assay [2] amounted to 0.133; in [3] it was 0.106; in [4] it was 1.4; in [5] it was 1.1; in assay [6], 0.637; in assay [7] it was 1.41. For the same molecule, the ELISA signal came to 1.24 in [8]; 0.204 in assay [9]; 0.093 in [10]; 0.088 in assay [11]; 0.146 in assay [12].

B6: 8D5A6C1 (2-10) (antibody, IgG4, V domains shown)
VH: QVQLQQPGAELVKPGASVRLSCKAFGYTFTSYWMHWVKQRPGQGLEWIGMIHPNSGVTKYNEKFKSKATLTVDKSSSTAYMQLSSLTSEDSAVYFCAGDGRFAYWGQGTLVTVSA
VL: DIQMTQSPSSLSASLGERVSLTCRASQDIGNSLNWLQQEPDGTIKRLIYATSSLDSGVPKRFSGSRSGSDYSLTISSLESEDFVDYYCLQYASSPWTFGGGTKLEIK
notes: as for B2
Take B6: the Kd in [1] was determined as 1.29 nM. In addition, in assay [1], the off-rate constant (koff) is 0.000615 s⁻¹. The kon in assay [1] was 476000 M⁻¹ s⁻¹. The ELISA signal is 0.176 in assay [2]; 0.083 in [3]; 1.3 in [4]; 0.998 in [5]; 0.724 in assay [6]; 1.27 in assay [7]. Moreover, the ELISA signal in assay [8] stood at 1.13; in assay [9], 0.245; in assay [10], 0.123; in [11] it was 0.154; in [12] it was 0.091.

B7: 45A10D5 (2-1) (antibody, IgG4, V domains shown)
VH: QVQLQQPGAELVKPGASVKLSCKASGYTFTSYWMHWVKQRPGQGLEWIGMIHPNSGSTNYNEKFKSKATLTVDKSSSTAYMQLSSLTSEDSAVYYCVYDGRFAYWGQGTLVTVSA
VL: DIQMTQSPSSLSASLGERVSLTCRASQDIGSSLNWLQQEPDGTIKRLIYATSSLDSGVPKRFSGSRSGSDYSLTISSLESEDFVDYYCLQYASSPFTFGSGTKLEIK
notes: as for B2
As to B7, in [1], the Kd stood at 30 nM. The koff in assay [1] is 0.0113 s⁻¹. In addition, in assay [1], the kon was 376000 M⁻¹ s⁻¹. Besides, the ELISA signal was found to be 0.087 in [2]; 0.1 in assay [3]; 1.6 in assay [4]; 1.12 in assay [5]; 0.658 in assay [6]; 1.63 in assay [7]. For the same molecule, the ELISA signal is 1.32 in [8]; 0.097 in assay [9]; 0.077 in assay [10]; 0.087 in assay [11]; 0.093 in assay [12].

B8: u6506gj130-1-8 (1-8) (antibody, IgG4, V domains shown)
VH: QVQLQQPGAELVRPGTSVKLSCKASGYTFTSYWMHWVKQRPGQGLEWIGVIDPSDSYTNYNQKFKGKATLTVDTSSSTAYMQLSSLTSEDSAVYYCARSSSAYYSNYEAYWGQGTLVTVSA
VL: QIVLTQSPAIMSASPGEKVTISCSASSSVGYMFWYQQKPGSSPKPWIYRTSNLASGVPARFSGSGSGTSYSLTISSMEAEDAATYYCQQYHSYPPMWTFGGGTKLEIK
notes: as for B1
In the case of B8, the equilibrium dissociation constant (Kd) in assay [1] was 11 nM. In addition, the off-rate constant (koff) in assay [1] came out at 0.00866 s⁻¹. Further, the kon in [1] came out at 790000 M⁻¹ s⁻¹. In addition, the ELISA signal turned out to be 1.45 in assay [2]; 1.34 in [3]; 0.111 in assay [4]; 1.61 in assay [5]; 1.18 in assay [6]; 1.45 in [7]. The ELISA signal is 0.197 in [8]; 1.4 in [9]; 1.39 in assay [10]; 1.43 in [11]; 1.35 in [12].

(Values after EP4653461A1 (DE NOVO BIOTHERAPEUTICS CO., LTD., dated 2025).)
